From the supplement of paper PMC12042874
± gives the uncertainty stated by the source.

Experiment: amyloid nucleation score (Sup35N fusion, yeast selection) (log enrichment); library NNK3; higher = more nucleation; inactive = no reads after selection
Procedure, shortened: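 For the nucleation score, DiMSum gave the log enrichment of output over input reads, centred on the mode score of non-aggregating sequences. Psi-negative yeast expressing Sup35N fused to peptides of 20 random codons were induced with 100 μM copper sulfate for 24 hours and grown 7 days at 30°C on medium lacking adenine and uracil. Input and output plasmid inserts were Illumina-sequenced, and sequences with under 100 input reads were excluded.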

| Substance | amyloid nucleation score |
| --- | --- |
| LYNRQVGKDANSFLYNRASQ | inactive |
| LYRSMH | inactive |
| LYSHSGSFSIGSQFNFVWFT | 1.44 ± 0.14 |
| LYSKCFGVRLHYVFSMSWSG | inactive |
| MAEWENRLARYSGICGSSLP | inactive |
| MAFGWWLDSMLYFITDALVP | inactive |
| MAINYTFFPPRLVT | inactive |
| MAKTMM | inactive |
| MAKVLHNWFFDRYRFVMFIG | inactive |
| MCKGR | inactive |
| MCKRGRDCGLLFVSTDDLGD | inactive |
| MCLYQGESRYGSYLYFTDIN | inactive |
| MCRMRSW | inactive |
| MCVWVWI | 2.06 ± 0.092 |
| MDLCMETGQYSLRNTVCAFL | inactive |
| MDLYMTSWEFTVLSLEKMGR | inactive |
| MDSCFRYVTYVTVLGLK | inactive |
| MDVYLRCSGYILTPKMAWSQ | inactive |
| MECELHTDGRSVACRHT | inactive |
| MELCTLMCHYVVYSVVNWTY | inactive |
| MEMLVVIRIARRMYDGGCLS | -0.423 ± 0.45 |
| MFCSIIKSQTVAFLVGSSFG | 0.145 ± 0.26 |
| MFDLYN | inactive |

| Substance | amyloid nucleation score |
| --- | --- |
| MFGFRNITK | 0.583 ± 0.2 |
| MFLKMRWSNAVRMARKCNLE | inactive |
| MFTGGMFRKVTIQIL | inactive |
| MGEMRMLVTVT | inactive |
| MGFVHINGQCTQLLCCSRLK | 1.94 ± 0.072 |
| MGHDHHWSGSDMGS | inactive |
| MGKVARRA | inactive |
| MGLIERLWWSTPIKF | inactive |
| MGMEIEQYNFTALLRD | inactive |
| MGRISVLPYLKFSYAIWY | inactive |
| MGSGGYNIITDGQSFFSTMA | inactive |
| MGVSWIII | inactive |
| MHPKSNGTFMFKMAN | inactive |
| MHSISV | inactive |
| MHTFSDQSISVEQRTCLQVR | inactive |
| MICESFVSLLLVKCELLGTA | inactive |
| MICHDLRSFIM | inactive |
| MIDRRMSFRQGDHKDCPTAH | inactive |
| MIIRGKPVIWMECLAVRTDR | inactive |
| MIKVLCTLFIDWAVAYVICH | inactive |
| MILTKSNSEVFEVGNKKLRV | inactive |
| MIRWAYLCM | inactive |
| MIYSTRSVFDFCGTFNTVVY | inactive |

| Substance | amyloid nucleation score |
| --- | --- |
| MKCFSVSVLCNLGSFLCEVT | 0.146 ± 0.9 |
| MKGVLAKNGYIDGVLGNTAM | inactive |
| MKLCNVRGIKVFAFCSGSRR | 1.3 ± 0.1 |
| MKQSDLGLKGRCDNCQFGRS | 0.092 ± 0.96 |
| MKRGWFELMIHWDYI | inactive |
| MLAVRMVDTPSSCQRIKPDN | inactive |
| MLEEGVHINSGLMIVWYIIM | inactive |
| MLFYCN | inactive |
| MLIRYAVLALCSCGTNFTDL | inactive |
| MLLSSVPDCFSWMGLRFCGD | inactive |
| MLLVLR | 0.972 ± 0.1 |
| MLMVLRGRSRDNNVQSLLFA | -0.292 ± 1.2 |
| MLWRTDHMYY | inactive |
| MMCPLKLWYHVWFSGYTL | inactive |
| MMLYALDRVAVTLGKSMLPA | inactive |
| MMMCG | inactive |
| MMPIRKKMNHRVTWEILWQR | inactive |
| MMRWIDVGYLVDLYSLRISG | inactive |
| MMVVNRGDHQDGGEAYEVV | inactive |
| MNKFLSVAIQGIYVERNAHV | 1.34 ± 0.11 |
| MNLYVSSLIGISARMWDWFS | 0.289 ± 0.25 |
| MNTRAVSVEFRYCARYFCHA | 0.142 ± 0.93 |
| MPFGYICWIGVCFSHD | 1.96 ± 0.081 |

| Substance | amyloid nucleation score |
| --- | --- |
| MPFIPHLDGS | inactive |
| MPKAGVSTVSLSHRKVLTLP | 0.174 ± 1 |
| MPRESLDLSTWVLVEEFIYI | inactive |
| MPSRCMLDSTIILYYWRFEH | 0.781 ± 0.28 |
| MPVSYAG | inactive |
| MQWNWEGSLYMKIMSGMCHP | 1.02 ± 0.15 |
| MRASCCKCVHICTYMSDRFD | 0.743 ± 0.22 |
| MRHVCSCFRNDHGIDGVF | 0.06 ± 0.44 |
| MRILKHMFQVDWLVNAMDAE | inactive |
| MRNTFRTHSKQYHHG | inactive |
| MRRCDVWKIYGYMLSPPLPR | inactive |
| MRTLYFPKCMTRLKMHVSSI | inactive |
| MRWVHSHANHPLHA | inactive |
| MRYSFRCF | inactive |
| MSADSCCSSCLVSTGTRVTF | inactive |
| MSDEDRYNRWFDTGVGVLDR | inactive |
| MSFGKSCEVKGGL | inactive |
| MSKYVGRIGCLWGNSASRAR | inactive |
| MSLHCDHIAEGNELWGDVRR | inactive |
| MSLLASLLIMYIPIRYNVE | inactive |
| MSMDHLMTYLRLATQVALRS | inactive |
| MSMPWNNHMISNVYRSYFVA | inactive |
| MSPWSRMF | inactive |

| Substance | amyloid nucleation score |
| --- | --- |
| MSSGLTVSNVL | inactive |
| MSSLDARIMSHYVYMVIDPV | inactive |
| MSSNFTRS | inactive |
| MSSRPGFNT | inactive |
| MSVDGLHCRWPSWHVKILLD | inactive |
| MSWLKQGLTDR | inactive |
| MSYSGTAHGDFLLRSCPARM | inactive |
| MTGDPGQFNAGDRLM | inactive |
| MTLFVSDTVRSLGNGNWA | inactive |
| MTSSVP | inactive |
| MTWNTGLYSRGRHGFYGFST | 1.26 ± 0.15 |
| MTYST | inactive |
| MVCFYHTGELPDWENR | inactive |
| MVCIDPFNENLVRVRMTVIG | inactive |
| MVFAMTYVLCDDMWSVIGHF | 0.141 ± 0.26 |
| MVGRGEQVM | inactive |
| MVNLSLCLNVVAEGLNFDRF | 1.66 ± 0.091 |
| MVVSVQIVFVQVTDMVYHVN | 0.393 ± 0.24 |
| MVWWNPNSWNVMLSLIWCLV | 0.752 ± 0.14 |
| MWITIS | inactive |
| MWRPSHTYCLSNGKVECREC | inactive |
| MWSIVSGDKVGSSPVLGGCV | inactive |
| MWSVPLKSQAILYTFDCVSL | 0.174 ± 0.44 |

| Substance | amyloid nucleation score |
| --- | --- |
| MWVGDKPSGSRRLVLGVRVT | -0.258 ± 0.91 |
| MWVPYSAFRMDQEFGFYGIT | 0.057 ± 0.24 |
| MYGEMYCRFCVVVVGWLQFV | inactive |
| MYNNC | inactive |
| MYTCLVPSSLK | inactive |
| MYWWRFVGLQSIYSGQLCKR | inactive |
| MYYAN | inactive |
| MYYMVTGRLVICRN | inactive |
| NAAGCSVSGCIG | inactive |
| NAFWAILVGPIDPEVSGTYG | inactive |
| NARVDVRRVVLHAKMPSFTI | inactive |
| NASMNKYYVRFTFGNPHVLL | 2.52 ± 0.061 |
| NAYLCGWL | inactive |
| NCGSYSKSDN | inactive |
| NCICDIYILTLELSLLRRWV | inactive |
| NCICWASYQTGLE | inactive |
| NCIYLVLN | inactive |
| NCLVVTGRKVPSETHLVFLM | inactive |
| NCNKMCRSCFRCQKTFWVWF | inactive |
| NCSYIDQR | 0.483 ± 0.14 |
| NCTDLLRMLYGMRRGINSNC | inactive |
| NCTVYLGTFCCSQGFAGLPP | 3.07 ± 0.053 |
| NCVPSCSAAFKSISRQPHGS | 0.115 ± 0.88 |

| Substance | amyloid nucleation score |
| --- | --- |
| NDCISHVSSCRMYDETKVCL | inactive |
| NDGTSILSTQSLSVRWMVRV | inactive |
| NDHLLL | inactive |
| NDHPVNSWPVGYSADINQVL | inactive |
| NDNINRSPESSALWYD | inactive |
| NDQKIPLARYLG | inactive |
| NDREWNKRYGINTKQPAAVT | inactive |
| NDSTHLRSRC | inactive |
| NDWRCKEVTSSDIWAFVYCS | 0.967 ± 0.12 |
| NEGSNATC | 0.713 ± 0.13 |
| NENYVIAGC | inactive |
| NFDKFDRRRWVMIIVYMAPA | inactive |
| NFDTDGTALRKLR | inactive |
| NFGHMY | inactive |
| NFGTWDQSVLSLRMKLTCVP | inactive |
| NFKLLLTSPWYATV | inactive |
| NFLSALIYILMAYDRDFVYR | inactive |
| NFSNHCRKLGEME | inactive |
| NGGAHSLGK | inactive |
| NGHKEESILCGNGYWKHASE | inactive |
| NGIVPLSHLFYIGDSVKWWG | inactive |
| NGLVQSMFVIRSLAQRNERR | inactive |
| NGPVGN | inactive |
